Biological target: the molecule itself
Experiment: negative-stain transmission elect

B1: LS-SpyTag (Aquifex aeolicus lumazine synthase multimeric protein scaffold particle with SpyTag) (other)
chain: MQIYEGKLTAEGLRFGIVASRFNHALVDRLVEGAIDAIVRHGGREEDITLVRVPGSWEIPVAAGELARKEDIDAVIAIGVLIRGATPHFDYIASEVSKGLANLSLELRKPITFGVITADTLEQAIERAGTKHGNKGWEAALSAIEMANLFKSLRGGGGSGGGGSGGGGSAHIVMVDAYKPTK
notes: also called LS-ST; LS-MPSPs; copies: 60
binding result: binds

— PMC8005036 (Vaccines, 2021)
